Laboratory results published in patent US20120052075A1 (H LUNDBECK A S, published 2012).
Each block holds one molecule with its values, some of them ahead of it.

How the values were obtained:
[1] = target: soluble SorCS2 (extracellular domain of SorCS2), immobilized on the Biacore chip (Homo sapiens in the sequence list; not stated for the assay) (UniProt Q96PQ0); assay: SPR (BIAcore), soluble SorCS2 immobilized, propeptide at 20 nM and 50 nM
[2] = target: T1, soluble SorCS2 (extracellular domain of SorCS2), immobilized on the Biacore chip (Homo sapiens in the sequence list; not …, UniProt Q96PQ0 51-1078); assay: SPR (BIAcore), soluble SorCS2 immobilized, p75 ECD at 1 uM
T1 construct: also called immobilized soluble SorCS2
Protocol: FIG. 6: Physical interaction between SorCS2 and p75^NTR. A, HEK293 cells stably transfected with SorCS2 and p75^NTR encoding vectors were crosslinked with DSP (Pierce) and subsequently lysed. The cell lysate was incubated with antibody against SorCS2 bound to Gammabind beads (GE Healthcare). The precitated complexes were eluted from the washed beads with SDS loading buffer. […] The presence of p75^NTR and IgG heavy is indicated. HEK293 cells stably transfected with a p75^NTR encoding plasmid alone were used as negative control. B, surface plasmon resonance experiment (BIAcore) showing the direct interaction of soluble full-length extracellular domain of p75^NTR (p75 ECD) with immobilized soluble SorCS2. The p75 ECD concentration used was 1 μM.
HEK293 cells stably transfected with plasmids encoding SorCS2 and p75^NTR were crosslinked with DSP (Pierce) and subsequently lysed. The cell lysate was incubated with antibody against SorCS2 bound to Gammabind beads (GE Healthcare). Precipitated complexes were eluted from the washed beads with SDS loading buffer. […] A biosensor chip from Biacore (CM5, cat.no. BR-1000-14) was activated using the NHS/EDC method as described by the supplier followed by coating with SorCS2 (FIG. 6B).

[3] = target: T1, soluble SorCS2 (extracellular domain of …); assay: SPR (BIAcore), soluble SorCS2 immobilized, BDNF at 10 nM and 20 nM

T1 sequence (Q96PQ0 51-1078 S716P limits assumed): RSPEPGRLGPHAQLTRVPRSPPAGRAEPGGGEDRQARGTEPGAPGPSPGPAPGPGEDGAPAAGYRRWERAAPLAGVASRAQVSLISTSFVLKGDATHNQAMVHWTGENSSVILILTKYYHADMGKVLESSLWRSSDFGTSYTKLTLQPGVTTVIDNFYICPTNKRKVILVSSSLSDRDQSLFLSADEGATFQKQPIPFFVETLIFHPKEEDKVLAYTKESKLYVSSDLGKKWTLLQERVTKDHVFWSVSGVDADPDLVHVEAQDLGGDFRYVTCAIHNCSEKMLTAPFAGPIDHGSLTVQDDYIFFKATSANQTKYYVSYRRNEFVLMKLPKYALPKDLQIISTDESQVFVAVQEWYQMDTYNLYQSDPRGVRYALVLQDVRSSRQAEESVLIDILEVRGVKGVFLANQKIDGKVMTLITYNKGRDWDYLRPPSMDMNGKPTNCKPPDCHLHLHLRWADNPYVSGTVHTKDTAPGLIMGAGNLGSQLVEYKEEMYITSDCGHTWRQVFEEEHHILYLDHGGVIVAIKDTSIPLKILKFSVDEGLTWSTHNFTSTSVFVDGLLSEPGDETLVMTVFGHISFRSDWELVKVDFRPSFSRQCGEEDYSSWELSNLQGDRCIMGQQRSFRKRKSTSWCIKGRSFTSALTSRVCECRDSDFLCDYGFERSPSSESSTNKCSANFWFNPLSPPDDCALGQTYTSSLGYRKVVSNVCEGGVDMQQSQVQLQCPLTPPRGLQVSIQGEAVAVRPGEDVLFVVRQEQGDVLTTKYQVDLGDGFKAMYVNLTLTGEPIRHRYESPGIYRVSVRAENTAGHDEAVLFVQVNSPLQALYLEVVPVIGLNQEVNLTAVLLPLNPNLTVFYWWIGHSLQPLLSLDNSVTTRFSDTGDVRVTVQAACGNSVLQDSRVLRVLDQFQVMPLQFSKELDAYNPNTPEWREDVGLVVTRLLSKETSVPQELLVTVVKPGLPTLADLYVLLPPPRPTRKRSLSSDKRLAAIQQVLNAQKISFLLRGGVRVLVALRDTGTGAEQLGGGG
soluble SorCS2 (extracellular domain of SorCS2), immobilized on the Biacore chip (Homo sapiens in the sequence list; not stated for the assay), sequence (Q96PQ0 51-1078 S716P limits assumed): as above

Kd [1]: 15 nM
Molecule: BDNF propeptide (from UniProt P23560 19-128) (ligand)

Kd [2]: ~10 nM
B1: soluble full-length extracellular domain of p75^NTR (receptor)
chain: KEACPTGLYTHSGECCKACNLGEGVAQPCGANQTVCEPCLDSVTFSDVVSATEPCKPCTECVGLQSMSAPCVEADDAVCRCAYGYYQDETTGRCEACRVCEAGSGLVFSCQDKQNTVCEECPDGTYSDEANHVDPCLPCTVCEDTERQLRECTRWADAECEEIPGRWITRSTPPEGSDSTAPSTQEPEAPPEQDLIASTVAGVVTTVMGSSQPVVTRGTTDN
notes: Whole entry named; also called p75 ECD

Kd [3]: 5 nM
B2: mature BDNF (ligand)
chain: HSDPARRGELSVCDSISEWVTAADKKTAVDMSGGTVTVLEKVPVSKGQLKQYFYETKCNPMGYTKEGCRGIDKRHWNSQCRTTQSYVRALTMDSKKRIGWRFIRIDTSCVCTLTIKRGR
